According to doi:10.1101/2020.06.01.127969:

Target: RNA polymerase II with SNAP-tagged Rpb1 labelled with SNAP-Surface 549 (Rpb1^SNAP549) (S. cerevisiae) (UniProt P04050)
Assay: CoSMoS

Chain of UniProt P04050 (P04050 whole entry, looked up): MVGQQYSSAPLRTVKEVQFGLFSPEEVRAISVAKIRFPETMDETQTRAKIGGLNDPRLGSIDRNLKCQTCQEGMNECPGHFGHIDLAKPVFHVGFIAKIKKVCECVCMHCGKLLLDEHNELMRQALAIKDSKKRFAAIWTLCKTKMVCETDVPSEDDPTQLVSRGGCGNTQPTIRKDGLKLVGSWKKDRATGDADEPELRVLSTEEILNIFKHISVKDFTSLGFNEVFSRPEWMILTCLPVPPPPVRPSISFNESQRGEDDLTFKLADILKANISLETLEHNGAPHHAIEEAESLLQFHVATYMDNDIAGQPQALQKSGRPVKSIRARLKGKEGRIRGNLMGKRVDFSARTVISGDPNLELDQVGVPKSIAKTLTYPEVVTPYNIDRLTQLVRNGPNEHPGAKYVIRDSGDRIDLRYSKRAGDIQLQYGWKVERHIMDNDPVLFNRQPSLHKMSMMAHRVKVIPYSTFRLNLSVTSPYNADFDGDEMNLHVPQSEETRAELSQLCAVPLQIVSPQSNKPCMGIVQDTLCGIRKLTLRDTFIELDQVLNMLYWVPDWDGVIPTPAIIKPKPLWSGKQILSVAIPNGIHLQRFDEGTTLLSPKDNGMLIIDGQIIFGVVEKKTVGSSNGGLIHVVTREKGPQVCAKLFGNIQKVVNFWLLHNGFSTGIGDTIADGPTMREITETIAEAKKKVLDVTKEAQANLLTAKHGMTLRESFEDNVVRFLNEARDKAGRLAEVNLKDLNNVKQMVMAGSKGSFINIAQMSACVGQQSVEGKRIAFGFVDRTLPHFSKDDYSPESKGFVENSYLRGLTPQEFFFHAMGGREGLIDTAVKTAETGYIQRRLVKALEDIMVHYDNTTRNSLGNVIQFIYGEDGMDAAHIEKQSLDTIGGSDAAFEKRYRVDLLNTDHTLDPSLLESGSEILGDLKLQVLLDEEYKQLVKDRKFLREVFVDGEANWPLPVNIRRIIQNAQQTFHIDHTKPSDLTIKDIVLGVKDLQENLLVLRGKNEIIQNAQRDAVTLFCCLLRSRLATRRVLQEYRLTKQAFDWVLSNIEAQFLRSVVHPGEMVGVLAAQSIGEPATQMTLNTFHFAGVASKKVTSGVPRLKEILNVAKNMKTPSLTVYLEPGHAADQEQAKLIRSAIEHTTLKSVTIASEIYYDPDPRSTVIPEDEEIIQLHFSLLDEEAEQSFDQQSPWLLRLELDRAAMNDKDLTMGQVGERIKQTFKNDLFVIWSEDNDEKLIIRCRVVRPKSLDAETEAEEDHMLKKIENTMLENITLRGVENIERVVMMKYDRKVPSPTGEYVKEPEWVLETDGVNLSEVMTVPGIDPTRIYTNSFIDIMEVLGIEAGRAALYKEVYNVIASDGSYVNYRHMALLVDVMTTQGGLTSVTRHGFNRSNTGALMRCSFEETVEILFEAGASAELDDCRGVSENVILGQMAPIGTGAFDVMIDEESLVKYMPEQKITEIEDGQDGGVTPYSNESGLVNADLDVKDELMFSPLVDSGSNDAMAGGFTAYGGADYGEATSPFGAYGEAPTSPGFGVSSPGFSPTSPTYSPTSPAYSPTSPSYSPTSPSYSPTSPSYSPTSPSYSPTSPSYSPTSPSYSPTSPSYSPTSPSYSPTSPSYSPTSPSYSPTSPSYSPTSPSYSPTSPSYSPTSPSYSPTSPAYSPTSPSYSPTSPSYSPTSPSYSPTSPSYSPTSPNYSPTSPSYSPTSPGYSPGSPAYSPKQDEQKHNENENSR

B1: elongation factor Spt4/5 with DHFR-tagged Spt5 labelled with Cy5-TMP (Spt5^DHFR-Cy5) (complex)
chain 1: MSDNSDTNVSMQDHDQQFADPVVVPQSTDTKDENTSDKDTVDSGNVTTTESTERAESTSNIPPLDGEEKEAKSEPQQPEDNAETAATEQVSSSNGPATDDAQATLNTDSSEANEIVKKEEGSDERKRPREEDTKNSDGDTKDEGDNKDEDDDEDDDDDDDDEDDDDEAPTKRRRQERNRFLDIEAEVSDDEDEDEDEEDSELVREGFITHGDDEDDEASAPGARRDDRLHRQLDQDLNKTSEEDAQRLAKELRERYGRSSSKQYRAAAQDGYVPQRFLLPSVDTATIWGVRCRPGKEKELIRKLLKKKFNLDRAMGKKKLKILSIFQRDNYTGRIYIEAPKQSVIEKFCNGVPDIYISQKLLIPVQELPLLLKPNKSDDVALEEGSYVRIKRGIYKGDLAMVDQISENNLEVMLKIVPRLDYGKFDEIDPTTQQRKSRRPTFAHRAPPQLFNPTMALRLDQANLYKRDDRHFTYKNEDYIDGYLYKSFRIQHVETKNIQPTVEELARFGSKEGAVDLTSVSQSIKKAQAAKVTFQPGDRIEVLNGEQRGSKGIVTRTTKDIATIKLNGFTTPLEFPISTLRKIFEPGDHVTVINGEHQGDAGLVLMVEQGQVTFMSTQTSREVTITANNLSKSIDTTATSSEYALHDIVELSAKNVACIIQAGHDIFKVIDETGKVSTITKGSILSKINTARARVSSVDANGNEIKIGDTIVEKVGSRREGQVLYIQTQQIFVVSKKIVENAGVFVVNPSNVEAVASKDNMLSNKMDLSKMNPEIISKMGPPSSKTFQQPIQSRGGREVALGKTVRIRSAGYKGQLGIVKDVNGDKATVELHSKNKHITIDKHKLTYYNREGGEGITYDELVNRRGRVPQARMGPSYVSAPRNMATGGIAAGAAATSSGLSGGMTPGWSSFDGGKTPAVNAHGGSGGGGVSSWGGASTWGGQGNGGASAWGGAGGGASAWGGQGTGATSTWGGASAWGNKSSWGGASTWASGGESNGAMSTWGGTGDRSAYGGASTWGGNNNNKSTRDGGASAWGNQDDGNRSAWNNQGNKSNYGGNSTWGGH
chain 2: MSSERACMLCGIVQTTNEFNRDGCPNCQGIFEEAGVSTMECTSPSFEGLVGMCKPTKSWVAKWLSVDHSIAGMYAIKVDGRLPAEVVELLPHYKPRDGSQVE
modifications: Cy5-trimethoprim (Cy5-TMP) bound non-covalently to the DHFR tag
For B1, the 1/k-5 (average time to dissociate from elongation complexes) was 56 s, the frequency of association with a DNA containing Rpb1^SNAP549, with added NTPs was 0.0094 s⁻¹ and the kapp = k-5 + k6 (aggregate dissociation rate constant, pooled events) was 0.021 s⁻¹. The kapp,prior (only events in which Spt4/5 left before RNApII) was 0.021 s⁻¹ and the kapp,simul (only events in which Spt4/5 and RNApII left simultaneously) was 0.018 s⁻¹.
